# Values joined by “and” are separate entries in the source; they are usually repeats but may differ in a detail not shown here. Equal entries are not always repeated.
# What was measured:
# [1] = target: T1, Flt-1 antigen (species not stated) (Homo sapiens (Human), UniProt P17948 27-656); test: Biacore
# T1 construct: also called sFlt-1; soluble Flt-1
# [2] = target: T1, Flt-1 antigen (species not stated at …); test: surface plasmon resonance (Biacore), EXP 1
# [3] = target: T1, Flt-1 antigen (species not stated at …); test: surface plasmon resonance (Biacore), EXP 2
# [4] = target: T1, Flt-1 antigen (species not stated at …); test: surface plasmon resonance (Biacore); reference not named
# [5] = target: T1, Flt-1 antigen (species not stated at …); test: kinetics, method not stated (Table 7)
# [6] = target: T1, Flt-1 antigen (species not stated at …); test: kinetics of Table 7; 'increased' is said of a higher affinity (lower KD)
# [7] = target: T1, Flt-1 antigen (species not stated at …); test: off-rate of Fabs, method not stated
# T1 sequence (P17948 other isoform, or with tags, fused parts or gaps limits assumed, form in doubt): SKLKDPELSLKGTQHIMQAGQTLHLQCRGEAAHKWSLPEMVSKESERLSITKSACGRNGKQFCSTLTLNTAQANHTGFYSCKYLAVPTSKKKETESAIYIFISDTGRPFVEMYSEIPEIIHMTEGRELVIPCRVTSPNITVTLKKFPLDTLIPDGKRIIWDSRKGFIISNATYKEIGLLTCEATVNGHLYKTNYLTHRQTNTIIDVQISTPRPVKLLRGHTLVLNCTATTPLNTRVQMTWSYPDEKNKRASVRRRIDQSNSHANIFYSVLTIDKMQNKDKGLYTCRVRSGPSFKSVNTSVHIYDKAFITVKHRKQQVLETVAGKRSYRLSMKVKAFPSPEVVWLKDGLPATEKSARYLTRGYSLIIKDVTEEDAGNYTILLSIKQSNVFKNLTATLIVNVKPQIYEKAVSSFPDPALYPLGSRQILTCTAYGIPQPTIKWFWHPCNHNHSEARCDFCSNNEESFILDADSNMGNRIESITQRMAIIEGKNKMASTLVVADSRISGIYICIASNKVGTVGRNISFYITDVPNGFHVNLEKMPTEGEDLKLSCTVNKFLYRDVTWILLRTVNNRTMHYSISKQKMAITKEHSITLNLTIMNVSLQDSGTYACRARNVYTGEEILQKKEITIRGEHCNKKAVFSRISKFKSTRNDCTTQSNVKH
binder,measurement,setting,value
"27H9 (antibody, human IgG1, lambda, V domains shown, also called 27H9 WT; 27H9 WT 23/07) VH: EVQLLESGGGLVQPGGSLRLSCAASGFTFRDYSMSWVRQAPGKGLEWVSAISWNGDSTYYAESAKGRFTISRDNSKNTLYLQMNSLRAEDTAVYYCAKSWATPIESLYYYGSDYWGQGTLVTVSS VL: SYELTQPLSVSVALRQTARITCGGNNIGSQTAQWYQQKPGQAPVLVIYANNRRPSGIPERFSGSKSGNTATLTISRAQAEDEADYYCQVWDESTQAIVFGGGTKLTVLG",Kd,[1],0.26 nM
same,koff,[1],8.4e-05 s⁻¹
same,kon,[1],330000 M⁻¹ s⁻¹
same,Kd,[2],0.23 nM and 0.26 nM
same,koff,[2],7.9e-05 s⁻¹ and 8.4e-05 s⁻¹
same,kon,[2],350000 M⁻¹ s⁻¹ and 330000 M⁻¹ s⁻¹
"27H4 (antibody, human IgG1, lambda, V domains shown, also called 27H4 WT; antibody 27H4) VH: ELQLVESGGGLVQPGGSLRLSCAASGFTFRDYSMSWVRQAPGKGLEWVSAISWNGDSTYYAESLKGRFTISRDNAKNTLYLQMNSLRAEDTAVYYCAKSWATPIESLYYYGSDYWGQGTLVTVSS VL: SYELTQPLSVSVALGQTARITCGGNNIGSQTAQWYQQKPGQAPVLVIYANNRRPSGIPERFSGSKSGNTATLTISRAQAEDEADYYCQVWEDSTQAIVFGGGTKLTVLG",Kd,[1],0.25 nM
same,koff,[1],8.2e-05 s⁻¹
same,kon,[1],340000 M⁻¹ s⁻¹
"27H6 (antibody, human IgG1, lambda, V domains shown, also called 27H6 WT; antibody 27H6) VH: ELQLVESGGGLVQPGGSLRLSCAASGFTFSDYSASWVRQAPGKGLEWVSAISWSGDSTYYAESVKGRFTIFRDNSKNTLYLQMNSLRAEDTAVYYCAKSWATPIESLYYYGSDYWGQGTLVTVSS VL: SYELTQPLSVSVALRQAAKITCGGNNIGSQTAQWYQQKPGQAPVLVIYANNRRPSGIPERFSGSKSGNTATLTISRAQAGDEADYYCQVWDGSTQAIVFGGGTKLTVLG",Kd,[1],0.16 nM
same,koff,[1],0.00014 s⁻¹
same,kon,[1],910000 M⁻¹ s⁻¹
"27H9 NG/NA (antibody, human IgG1, lambda) heavy: not shown light: SYELTQPLSVSVALRQTARITCGGNNIGSQTAQWYQQKPGQAPVLVIYANNRRPSGIPERFSGSKSGNTATLTISRAQAEDEADYYCQVWDESTQAIVFGGGTKLTVLGQPKAAPSVTLFPPSSEELQANKATLVCLISDFYPGAVTVAWKADSSPVKAGVETTTPSKQSNNKYAASSYLSLTPEQWKSHRSYSCQVTHEGSTVEKTVAPTECS",Kd,[2],0.39 nM
same,koff,[2],0.00011 s⁻¹
same,kon,[2],290000 M⁻¹ s⁻¹
same,Kd,[3],0.51 nM
same,koff,[3],0.00015 s⁻¹
same,kon,[3],290000 M⁻¹ s⁻¹
"27H9 NG/NA AAA (antibody, human IgG1, lambda, also called 27H9_NA_+_AAA; 27H9 NA + AAA) heavy: not shown light: SYELTQPLSVSVALRQTARITCGGNNIGSQTAQWYQQKPGQAPVLVIYANNRRPSGIPERFSGSKSGNTATLTISRAQAEDEADYYCQVWDESTQAIVFGGGTKLTVLGQPKAAPSVTLFPPSSEELQANKATLVCLISDFYPGAVTVAWKADSSPVKAGVETTTPSKQSNNKYAASSYLSLTPEQWKSHRSYSCQVTHEGSTVEKTVAPTECS",Kd,[3],0.51 nM
same,koff,[3],0.00015 s⁻¹
same,kon,[3],290000 M⁻¹ s⁻¹
same,fold reduced binding affinity,[4],~2 fold
"27H9 NG/QG (antibody, human IgG1, lambda, V domains shown) VH: EVQLLESGGGLVQPGGSLRLSCAASGFTFRDYSMSWVRQAPGKGLEWVSAISWQGDSTYYAESAKGRFTISRDNSKNTLYLQMNSLRAEDTAVYYCAKSWATPIESLYYYGSDYWGQGTLVTVSS VL: SYELTQPLSVSVALRQTARITCGGNNIGSQTAQWYQQKPGQAPVLVIYANNRRPSGIPERFSGSKSGNTATLTISRAQAEDEADYYCQVWDESTQAIVFGGGTKLTVLG",Kd,[2],0.36 nM
same,koff,[2],0.00013 s⁻¹
same,kon,[2],370000 M⁻¹ s⁻¹
"21B3 (antibody, V domains shown, also called 21B3 WT; antibody 21B3) VH: ELQLVESGGGLVQPGGSLRLSCAASGFTFRDYSMSWVRQAPGKGLEWVSAISWNGDSTYYAESMKGRFTISRDNAKNTLYLQMNSLKSEDTAVYYCAKSWATPIESLYYYGMDYWGKGTLVTVSS VL: SYELTQSPSVSVALRQTAKITCGGNNIGSQTAQWYQQKPGQAPVLVIYANNRRPSGIPERFSGSKSGNTATLTISGAQAEDEADYYCQVWDGSTQAIVFGGGTHLTVL",Kd,[1],0.32 nM
same,koff,[1],0.00017 s⁻¹
same,kon,[1],540000 M⁻¹ s⁻¹
same,Kd,[5],0.0848 nM
same,koff,[5],4.73e-05 s⁻¹
same,kon,[5],558000 M⁻¹ s⁻¹
same,Kd,[3],0.32 nM
same,koff,[3],0.00017 s⁻¹
same,kon,[3],540000 M⁻¹ s⁻¹
same,fold change of KD against parent antibody 13B4,[6],~5 fold
"21B3 AAA (antibody, human IgG1, lambda, V domains shown, AAA mutation in the Fc region) VH: ELQLVESGGGLVQPGGSLRLSCAASGFTFRDYSMSWVRQAPGKGLEWVSAISWNGDSTYYAESMKGRFTISRDNAKNTLYLQMNSLKSEDTAVYYCAKSWATPIESLYYYGMDYWGKGTLVTVSS VL: SYELTQSPSVSVALRQTAKITCGGNNIGSQTAQWYQQKPGQAPVLVIYANNRRPSGIPERFSGSKSGNTATLTISGAQAEDEADYYCQVWDGSTQAIVFGGGTHLTVLG",Kd,[3],0.21 nM
same,koff,[3],0.00011 s⁻¹
same,kon,[3],520000 M⁻¹ s⁻¹
"27H9 Fab (Fab, V domains shown, also called 27H9_VH) VH: EVQLLESGGGLVQPGGSLRLSCAASGFTFRDYSMSWVRQAPGKGLEWVSAISWNGDSTYYAESAKGRFTISRDNSKNTLYLQMNSLRAEDTAVYYCAKSWATPIESLYYYGSDYWGQGTLVTVSS VL: SYELTQPLSVSVALRQTARITCGGNNIGSQTAQWYQQKPGQAPVLVIYANNRRPSGIPERFSGSKSGNTATLTISRAQAEDEADYYCQVWDESTQAIVFGGGTKLTVL",kd IMPROVEMENT (against parent 21B3),[7],1.12
"25D4 Fab (Fab, V domains shown, also called 25D4_VH) VH: EVQLLESGGGLVQPGGSLRLSCAASGFTFRDYSASWVRQAPGKGLEWVSAISWNGDSTYYAESVKGRFTISRDNAKNTLYLQMNSLRAEDTAVYYCAKSWATPIESLYYYGSDYWGQGTLVTVSS VL: SYELTQPLSVSVALGQTARITCGGNNIGSQTAQWYQQKPGQAPVLVIYANNRRPSGIPERFSGSKSGNTATLTISGAQAEDEADYYCQVWAASTQAIVFGGGTKLTVL",kd IMPROVEMENT (against parent 21B3),[7],0.94
"25F11 Fab (Fab, V domains shown, also called 25F11_VH) VH: EVQLLESGGGLVQPGGSLRLSCAASGFTFRDYSMSWVRQAPGKGLEWVSAISWNGDSTYYAESAKGRFTISRDNSKNTLYLQMNSLRAEDTAVYYCAKSWATPIESLYYYGSDYWGQGTLVTVSS VL: SYELTQPLSVSVALRQAARITCGGNNIGSQTAQWYQQKPGQAPVLVIYANNRRPSGIPERFSGSKSGNTATLTISRAQAEDEADYYCQVWEASTQAIVFGGGTKLTVL",kd IMPROVEMENT (against parent 21B3),[7],1
"25G9 Fab (Fab, V domains shown, also called 25G9_VH) VH: EVQLLESGGGLVQPGGSLRLSCAASGFTFRDYSMSWVRQAPGKGLEWVSAITWSGDSTYYAESVKGRFTISRDNSKNTLYLQMNSLRAEDTAVYYCAKSWATPIESLYYYGTDYWGKGTLVTVSS VL: SYELTQPLSVSVALRQAARITCGGNNIGSQTAQWYQQKPGQAPVLVIYANNRRPSGIPERFSGSKSGNTATLTISRAQAEDEADYYCQVWDDSTQAIVFGGGTKLTVL",kd IMPROVEMENT (against parent 21B3),[7],0.97
"27G9 Fab (Fab, V domains shown, also called 27G9_VH) VH: EVQLLESGGGLVQPGGSLRLSCAASGFTFRDYSASWVRQAPGKGLEWVSAISWSGDSTYYAESLKGRFTISRDNSKNTLYLQMNSLRAEDTAVYYCAKSWATPIESLYYYGSDYWGKGTLVTVSS VL: SYELTQPLSVSVALGQTAKITCGGNNIGSQTAQWYQQKPGQAPVLVIYANNRRPSGIPERFSGSKSGNTATLTISRAQAEDEADYYCQVWEESTQAIVFGGGTHLTVL",kd IMPROVEMENT (against parent 21B3),[7],1.3
"27H4 Fab (Fab, V domains shown, also called 27H4_VH) VH: ELQLVESGGGLVQPGGSLRLSCAASGFTFRDYSMSWVRQAPGKGLEWVSAISWNGDSTYYAESLKGRFTISRDNAKNTLYLQMNSLRAEDTAVYYCAKSWATPIESLYYYGSDYWGQGTLVTVSS VL: SYELTQPLSVSVALGQTARITCGGNNIGSQTAQWYQQKPGQAPVLVIYANNRRPSGIPERFSGSKSGNTATLTISRAQAEDEADYYCQVWEDSTQAIVFGGGTKLTVL",kd IMPROVEMENT (against parent 21B3),[7],1.06
"27H6 Fab (Fab, V domains shown, also called 27H6_VH) VH: ELQLVESGGGLVQPGGSLRLSCAASGFTFSDYSASWVRQAPGKGLEWVSAISWSGDSTYYAESVKGRFTIFRDNSKNTLYLQMNSLRAEDTAVYYCAKSWATPIESLYYYGSDYWGQGTLVTVSS VL: SYELTQPLSVSVALRQAAKITCGGNNIGSQTAQWYQQKPGQAPVLVIYANNRRPSGIPERFSGSKSGNTATLTISRAQAGDEADYYCQVWDGSTQAIVFGGGTKLTVL",kd IMPROVEMENT (against parent 21B3),[7],0.96

# — patent US20240076387A1 (published 2024)
